Here are results for 8 molecules from patent publication US20150284465A1 (Chugai, published 2015).

Numbering of substitutions follows the chain as printed. Where two headings read alike, the source gives them in different places.

Assay [1] has as its target T1, SR344 (N-terminal 1st to 344th amino acids of soluble human IL-6R) (human, UniProt P08887 20-344, limits assumed).
T1 construct: also called recombinant soluble IL-6 receptor; soluble human IL-6 receptor
T1 sequence (looked up): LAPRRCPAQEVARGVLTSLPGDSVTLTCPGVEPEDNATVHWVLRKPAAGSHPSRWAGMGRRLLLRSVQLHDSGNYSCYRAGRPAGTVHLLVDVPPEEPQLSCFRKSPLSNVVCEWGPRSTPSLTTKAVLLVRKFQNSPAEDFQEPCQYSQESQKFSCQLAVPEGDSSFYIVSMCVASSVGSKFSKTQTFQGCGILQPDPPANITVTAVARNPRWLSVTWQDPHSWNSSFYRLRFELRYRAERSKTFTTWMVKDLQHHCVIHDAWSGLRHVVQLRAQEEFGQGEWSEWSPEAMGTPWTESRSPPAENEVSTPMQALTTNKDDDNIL
Nature of the assay: SPR (Biacore T100), SR344 as analyte, 37 C.

Assay [2] addresses T1, SR344 (N-terminal 1st to 344th amino …). As to the kind of experiment: SPR (Biacore T100), antibody captured on anti-IgG (γ-chain specific) F(ab')2, SR344 as analyte, pH 7.4, 37 C. As for the experimental part:
Antigen-antibody reaction kinetics was analyzed using Biacore T100 (GE Healthcare). The SR344-antibody interaction was measured by immobilizing appropriate amounts of anti-IgG (γ-chain specific) F(ab′)2 onto a sensor chip by amine coupling method, binding antibodies of interest onto the chip at pH 7.4, and then flowing IL-6 receptor SR344 adjusted to be various concentrations at pH 7.4 over the chip as an analyte. All measurements were carried out at 37° C. The kinetic parameters, association rate constant kₐ (1/Ms) and dissociation rate constant kd (1/s) were calculated from the sensorgrams obtained by measurement. Then, KD (M) was determined based on the rate constants. The respective parameters were determined using Biacore T100 Evaluation Software (GE Healthcare).

For assay [3] the target is unchanged. As to the kind of experiment: SPR (Biacore T100), antibody captured on Protein A, soluble human IL-6 receptor as analyte. As for the experimental part: The antigen-antibody reaction kinetics between anti-human IL-6 receptor antibody and soluble human IL-6 receptor was analyzed using Biacore T100 (GE Healthcare Biosciences). The antigen-antibody interaction was measured by immobilizing rec-Protein A (Zymed) (hereinafter “Protein A”) onto a sensor chip, capturing an antibody with the immobilized Protein A, and then reacting the antibody with the antigen as an analyte using a method known to those skilled in the art. The running buffer used was HBS-EP+, and the flow rate was 20 μl/min. Each antibody was prepared so that about 100 RU of the antibody was bound to Protein A/G. Soluble human IL-6 receptor was prepared at 0, 0.065, 0.131, and 0.261 μg/ml using HBS-EP+ and used as an analyte. In the first step of the measurement, the antibody in solution was bound to Protein A/G, and the analyte solution was allowed to interact with the antibody. After three minutes of interaction, the solution was switched to HBS-EP+, and the dissociation phase was monitored for 10 or 15 minutes. After measurement of the dissociation phase, the sensor chip was regenerated by washing with 10 μl of 10 mM glycine-HCl (pH 1.5). The association, dissociation, and regeneration constitute one analysis cycle. Each antibody was measured according to this cycle. The obtained sensorgrams were kinetically analyzed using the Biacore-specific data analysis software, Biacore T100 Evaluation Software (GE Healthcare Biosciences).

Assay [4] addresses T2, soluble human FcRn (complex of FcRn and β2-microglobulin) (human, UniProt P55899 24-290; P16213 21-119).
T2 construct: also called hFcRn; copies: 1 + 1
Nature of the assay: SPR (Biacore 3000), antibody captured on Protein L or anti-human kappa chain antibody, human FcRn as analyte, pH 6.0, steady state affinity. As for the experimental part:
(§1) The binding to human FcRn was assessed using Biacore 3000. An antibody was bound to Protein L or rabbit anti-human IgG Kappa chain antibody immobilized onto a sensor chip, human FcRn was added as an analyte for interaction with the antibody, and the affinity (KD) was calculated from the amount of bound human FcRn. Specifically, Protein L or rabbit anti-human IgG Kappa chain antibody was immobilized onto sensor chip CM5 (Biacore) by the amine coupling method using 50 mM Na-phosphate buffer (pH 6.0) containing 150 mM NaCl as the running buffer. Then, an antibody was diluted with a running buffer containing 0.02% Tween20, and injected to be bound to the chip. Human FcRn was then injected and the binding activity of the human FcRn to antibody was assessed.
(§2) The affinity was computed using BlAevaluation Software. The obtained sensorgram was used to calculate the amount of hFcRn bound to the antibody immediately before the end of human FcRn injection. The affinity of the antibody for human FcRn was calculated by fitting with the steady state affinity method.

Assay [5] addresses T2, soluble human FcRn (complex of FcRn and …). The assay is described as above. As for the experimental part: as §1, §2
This is another data set of the same source.

Assay [6] shares this target. As to the kind of experiment: SPR (Biacore 3000), human FcRn as analyte, pH 6.0.
Assay [7] concerns the target T1, SR344 (N-terminal 1st to 344th amino …). As to the kind of experiment: SPR (Biacore T100), antibody captured on Protein A/G, SR344 as analyte, 37 C.
Assay [8] shares this target. As to the kind of experiment: SPR (Biacore T100), Protein A/G capture, SR344 at 0, 0.36 and 1.4 µg/ml, 15 min dissociation, 37 C.
The target is the same in assay [9]. The assay is described as above. As for the experimental part:
(§3) This measurement was carried out under the same conditions described in Example 2. The running buffer used was HBS-EP+, and the flow rate was 20 μl/min. Each antibody was prepared so that about 100 RU of the antibody was bound to Protein A/G. SR344 was prepared at 0, 0.065, 0.131, and 0.261 μg/ml using HBS-EP+ and used as an analyte. In the first step of the measurement, the antibody in solution was bound to Protein A/G, and the analyte solution was allowed to interact therewith. After three minutes of interaction, the solution was switched to HBS-EP+, and the dissociation phase was monitored for 10 or 15 minutes. After measurement of the dissociation phase, the sensor chip was regenerated by washing with 10 μl of 10 mM glycine-HCl (pH 1.5). The association, dissociation, and regeneration constitute one analysis cycle. Each antibody was measured according to this cycle.
The Tm of purified H96/PF1L-IgG1 was determined by the method described in Example 5. The affinity measurement was carried out under essentially the same conditions used in Example 5. Note that the concentration of SR344 was adjusted to 0, 0.36, and 1.4 μg/ml, and the dissociation phase was monitored for 15 minutes.
The source holds these as a separate data set.

Assay [10] has the same target. Nature of the assay: SPR (Biacore T100), antibody captured on Protein A/G, SR344 as analyte, 37 C. As for the experimental part: as §3
The sensorgram was kinetically analyzed using the Biacore-specific data analysis software, Biacore T100 Evaluation Software.
This is another data set of the same source.

T2 sequence (P55899 24-290 limits assumed, chain 1 of 2): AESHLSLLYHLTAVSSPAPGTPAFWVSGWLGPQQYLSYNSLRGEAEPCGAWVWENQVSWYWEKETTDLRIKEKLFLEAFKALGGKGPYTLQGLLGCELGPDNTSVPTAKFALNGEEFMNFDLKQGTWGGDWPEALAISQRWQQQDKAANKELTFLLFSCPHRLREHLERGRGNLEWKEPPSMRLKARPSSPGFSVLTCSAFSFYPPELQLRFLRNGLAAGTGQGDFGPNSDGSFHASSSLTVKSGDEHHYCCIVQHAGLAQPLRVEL
T2 sequence (P16213 21-119 limits assumed, chain 2 of 2): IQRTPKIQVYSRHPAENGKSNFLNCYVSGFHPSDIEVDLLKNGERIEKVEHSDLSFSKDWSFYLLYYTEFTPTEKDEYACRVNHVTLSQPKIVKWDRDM

B1: Fv3-M73 (antibody, V domains shown)
VH: QVQLQESGPGLVKPSETLSLTCAVSGHSISHDHAWSWVRQPPGEGLEWIGFISYSGITNYNPTLQGRVTISRDNSKNTLYLQMNSLRAEDTAVYYCARSLARTTAMDYWGEGTLVTVSS
VL: DIQMTQSPSSLSASVGDSVTITCQASRDISSHLNWYQQKPGKAPELLIYYGSHLLSGVPSRFSGSGSGTDFTFTISSLEAEDAATYYCGQGNRLPYTFGQGTKVEIER
notes: also called VH4-M73/VL1-kappa
As for B1, the “fold higher affinity than TOCILIZUMAB” value in assay [1] was determined as 3 fold. In [2], this molecule came in with a dissociation constant (Kd) of 1 nM, a koff of 0.00087 s⁻¹ and a kon of 850000 M⁻¹ s⁻¹.

B2: 6R_a_H2L2 (antibody, human IgG1, kappa, V domains shown)
VH: QVQLQESGPGLVKPSETLSLTCAVSGYSISDDHAWSWVRQPPGEGLEWIGYISYSGITNYNPSLKGRVTISRDTSKNQFSLKLSSVTAADTAAYYCARVLARITAMDYWGEGTLVTVSS
VL: B1 VL with R27Q, H32Y, H53E, L55H
As for B2, the affinity in assay [3], expressed as Kd, was 0.03 nM.

B3: 6R_a_H3L3 (antibody, human IgG1, kappa, V domains shown)
VH: B1 VH with H27Y, H31D, F51Y, T63S, G66D, S99L, T103A, E111Q, T113I
VL: B1 VL with R27E, H32Y, H53E, L55E
B3 gave a Kd in assay [3] of 0.052 nM.

B4: Fv4-M73 (antibody, V domains shown)
VH: B1 VH with T63S
VL: B1 VL with R27T
notes: also called VH3-M73/VL3-kappa
Regarding B4, in [1], the “fold higher affinity than TOCILIZUMAB” value is 2 fold. Besides, in assay [2], binding was put at a Kd of 1.4 nM, the koff turned out to be 0.001 s⁻¹ and the kon is 750000 M⁻¹ s⁻¹.

B5: 6R_a_H1L1 (antibody, human IgG1, kappa, V domains shown)
VH: QVQLQESGPGLVRPSQTLSLTCTVSGYSITSDHAWSWVRQPPGRGLEWIGYISYSGITTYNPSLKSRVTMLRDTSKNQFSLRLSSVTAADTAVYYCARVLARITAMDYWGQGSLVTVSS
VL: DIQMTQSPSSLSASVGDRVTITCRASQDISSYLNWYQQKPGKAPKLLIYYTSRLHSGVPSRFSGSGSGTDFTFTISSLQPEDIATYYCGQGNRLPYTFGQGTKVEIKR
notes: Anti-human IL-6 receptor antibody
Consider B5, for which the Kd in assay [3] was found to be 0.067 nM.

B6: WT-M58 (antibody)
heavy: QVQLQESGPGLVRPSQTLSLTCTVSGYSITSDHAWSWVRQPPGRGLEWIGYISYSGITTYNPSLKSRVTMLRDTSKNQFSLRLSSVTAADTAVYYCARSLARTTAMDYWGQGSLVTVSSASTKGPSVFPLAPSSKSTSGGTAALGCLVKDYFPEPVTVSWNSGALTSGVHTFPAVLQSSGLYSLSSVVTVPSSNFGTQTYTCNVDHKPSNTKVDKTVERKSCVECPPCPAPPVAGPSVFLFPPKPKDTLMISRTPEVTCVVVDVSQEDPEVQFNWYVDGVEVHNAKTKPREEQFNSTFRVVSVLTVVHQDWLNGKEYKCKVSNKGLPAPIEKTISKTKGQPREPQVYTLPPSQEEMTKNQVSLTCLVKGFYPSDIAVEWESNGQPENNYKTTPPMLDSDGSFFLYSKLTVDKSRWQEGNVFSCSVMHEALHNHYTQKSLSLSP
light: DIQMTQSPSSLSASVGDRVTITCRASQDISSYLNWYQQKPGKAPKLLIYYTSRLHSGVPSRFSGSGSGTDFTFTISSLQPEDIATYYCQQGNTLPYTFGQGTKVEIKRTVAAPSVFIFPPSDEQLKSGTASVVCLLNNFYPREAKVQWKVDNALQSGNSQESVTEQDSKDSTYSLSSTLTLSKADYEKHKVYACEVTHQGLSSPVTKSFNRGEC
notes: also called M58 (WT)
Take B6: the figures for the Kd in assay [4] and in [5] were 1170 nM and 1030 nM, respectively. Besides, the “binding activity relative to WT-IgG1” value in assay [6] is roughly 1.4 fold.

B7: WT-M73 (antibody)
heavy: B6 heavy with N432A
light: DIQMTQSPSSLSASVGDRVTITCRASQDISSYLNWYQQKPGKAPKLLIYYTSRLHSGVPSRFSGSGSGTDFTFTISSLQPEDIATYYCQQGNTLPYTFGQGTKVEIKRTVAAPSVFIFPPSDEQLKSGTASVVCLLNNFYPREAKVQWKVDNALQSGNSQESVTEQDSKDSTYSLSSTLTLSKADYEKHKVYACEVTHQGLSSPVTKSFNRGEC
B7 registered a Kd in [4] of 420 nM. For the same molecule, in assay [6], the “binding activity relative to WT-IgG1” value was roughly 3.8 fold.

B8: PF1 antibody (antibody, IgG1, V domains shown)
VH: B2 VH
VL: DIQMTQSPSSLSASVGDSVTITCQASQDISSYLNWYQQKPGKAPELLIYYGSELHSGVPSRFSGSGSGTDFTFTISSLEAEDAATYYCGQGNRLPYTFGQGTKVEIE
notes: also called PF1-IgG1; PF1_H/PF1_L
On to B8, for which the “fold improved affinity against WT” value in assay [7] was roughly 150 fold. In assay [8], this molecule displayed a Kd of 0.03 nM, a koff of 4.4e-05 s⁻¹ and a kon of 1.5e+06 M⁻¹ s⁻¹. Besides, in assay [9], the Kd is 0.031 nM, the koff turned out to be 4.2e-05 s⁻¹ and the kon is 1.4e+06 M⁻¹ s⁻¹. In assay [10], this molecule gave a Kd of 0.027 nM, a koff of 3.5e-05 s⁻¹ and a kon of 1.3e+06 M⁻¹ s⁻¹.
